Assays:
[1] = target: T1, Photo optimized trastuzumab; meditope enabled (Tmab); experiment: BLI Octet, antibody on anti-human Fc tips
T1 construct: also called photo-optimized trastuzumab V2; photo-optimized meditope enabled Trastuzumab variant 2

MBI_CD19_1; (SAR3419) = experiment: BLI Octet, antibody on anti-human Fc tips
[2] = target: T2, Meditope enabled Clivatuzumab; experiment: BLI Octet, antibody on anti-human Fc tips
T2 construct: also called Clivatuzumab enabled

[3] = target: T3, Meditope enabled Ocaratuzumab; experiment: BLI Octet, antibody on anti-human Fc tips
T3 construct: also called Ocaratuzumab enabled

MBI_CD19_2; (MOR208) = experiment: BLI Octet, antibody on anti-human Fc tips
[4] = target: T1, Photo optimized trastuzumab; meditope …; experiment: BLI Octet, antibody on anti-human Fc tips; remark: listed apart in the source
[5] = target: T1, Photo optimized trastuzumab; meditope …; experiment: BLI Octet, antibody on anti-human Fc tips; Peptide 19, Table 9
[6] = target: T4, Meditope enabled Trastuzumab; experiment: BLI Octet, antibody on anti-human Fc tips
T4 construct: also called Trastuzumab enabled

[7] = target: T5, Meditope enabled Lintuzumab; experiment: BLI Octet, antibody on anti-human Fc tip, peptide 111 nM
T5 construct: also called Lintuzumab enabled

[8] = target: T5, Meditope enabled Lintuzumab; experiment: BLI Octet, antibody on anti-human Fc tip, peptide 333 nM
[9] = target: T5, Meditope enabled Lintuzumab; experiment: BLI Octet, antibody on anti-human Fc tip, peptide 37 nM
[10] = target: T6, Meditope enabled Panitumumab; experiment: as above
T6 construct: also called Panitumumab enabled

[11] = target: T5, Meditope enabled Lintuzumab; experiment: BLI Octet, antibody on anti-human Fc tip, peptide 12 nM
[12] = target: T6, Meditope enabled Panitumumab; experiment: as above
[13] = target: T5, Meditope enabled Lintuzumab; experiment: BLI Octet, antibody on anti-human Fc tip, peptide 1000 nM; Peptide 20

T1 sequence (heavy, as listed by the source, chain 1 of 2): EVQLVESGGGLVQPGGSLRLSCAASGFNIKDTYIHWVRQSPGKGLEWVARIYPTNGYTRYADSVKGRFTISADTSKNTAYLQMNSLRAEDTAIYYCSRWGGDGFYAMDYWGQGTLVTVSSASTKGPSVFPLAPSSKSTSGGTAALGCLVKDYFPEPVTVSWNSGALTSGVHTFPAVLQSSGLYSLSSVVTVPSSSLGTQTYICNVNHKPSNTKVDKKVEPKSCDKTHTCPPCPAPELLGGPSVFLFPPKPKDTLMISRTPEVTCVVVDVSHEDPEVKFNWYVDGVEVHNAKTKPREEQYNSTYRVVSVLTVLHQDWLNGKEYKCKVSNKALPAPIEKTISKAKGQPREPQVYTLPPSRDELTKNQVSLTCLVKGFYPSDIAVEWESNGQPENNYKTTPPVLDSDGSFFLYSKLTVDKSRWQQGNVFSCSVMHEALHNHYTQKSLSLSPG
T1 sequence (light, as listed by the source, chain 2 of 2): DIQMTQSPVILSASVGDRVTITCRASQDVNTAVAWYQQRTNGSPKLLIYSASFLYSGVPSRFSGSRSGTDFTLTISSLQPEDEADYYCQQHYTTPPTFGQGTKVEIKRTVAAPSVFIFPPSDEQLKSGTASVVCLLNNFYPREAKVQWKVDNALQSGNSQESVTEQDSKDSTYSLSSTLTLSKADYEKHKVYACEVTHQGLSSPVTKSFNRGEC
T5 sequence (VH, as listed by the source, chain 1 of 2): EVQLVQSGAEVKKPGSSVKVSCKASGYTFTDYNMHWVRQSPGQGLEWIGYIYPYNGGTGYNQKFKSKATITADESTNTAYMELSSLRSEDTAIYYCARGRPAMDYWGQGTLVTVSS
T5 sequence (VL, as listed by the source, chain 2 of 2): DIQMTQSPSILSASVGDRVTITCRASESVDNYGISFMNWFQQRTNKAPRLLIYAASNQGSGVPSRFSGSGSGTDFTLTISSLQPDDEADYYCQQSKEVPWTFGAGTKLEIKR
T6 sequence (VH, as listed by the source, chain 1 of 2): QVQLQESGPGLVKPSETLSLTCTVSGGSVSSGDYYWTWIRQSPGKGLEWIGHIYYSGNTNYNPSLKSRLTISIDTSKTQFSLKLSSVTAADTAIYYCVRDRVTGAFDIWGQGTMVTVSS
T6 sequence (VL, as listed by the source, chain 2 of 2): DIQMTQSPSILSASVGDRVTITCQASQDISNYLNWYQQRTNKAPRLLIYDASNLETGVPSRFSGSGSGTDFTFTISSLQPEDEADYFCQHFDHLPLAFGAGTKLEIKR
T2 sequence (heavy, as listed by the source, chain 1 of 2): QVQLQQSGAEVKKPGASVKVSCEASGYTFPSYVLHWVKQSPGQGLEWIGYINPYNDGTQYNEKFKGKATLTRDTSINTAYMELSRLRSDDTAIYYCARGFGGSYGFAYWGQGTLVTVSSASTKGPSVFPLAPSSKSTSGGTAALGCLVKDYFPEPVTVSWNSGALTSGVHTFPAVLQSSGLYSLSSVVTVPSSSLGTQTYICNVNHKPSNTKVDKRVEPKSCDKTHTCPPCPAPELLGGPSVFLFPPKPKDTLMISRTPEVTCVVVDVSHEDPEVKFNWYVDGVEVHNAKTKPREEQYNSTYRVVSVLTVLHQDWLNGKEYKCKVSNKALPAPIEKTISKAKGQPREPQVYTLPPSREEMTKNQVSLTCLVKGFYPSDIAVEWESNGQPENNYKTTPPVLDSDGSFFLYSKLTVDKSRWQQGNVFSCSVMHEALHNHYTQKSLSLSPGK
T2 sequence (light, as listed by the source, chain 2 of 2): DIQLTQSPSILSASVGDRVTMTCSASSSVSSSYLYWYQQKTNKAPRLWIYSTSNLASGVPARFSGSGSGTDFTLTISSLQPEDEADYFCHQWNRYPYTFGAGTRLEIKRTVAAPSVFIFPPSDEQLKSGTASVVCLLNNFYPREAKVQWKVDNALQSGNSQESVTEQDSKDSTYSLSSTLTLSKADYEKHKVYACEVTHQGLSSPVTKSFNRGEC
Sequence of MBI_CD19_1; (SAR3419) (heavy, as listed by the source, chain 1 of 2): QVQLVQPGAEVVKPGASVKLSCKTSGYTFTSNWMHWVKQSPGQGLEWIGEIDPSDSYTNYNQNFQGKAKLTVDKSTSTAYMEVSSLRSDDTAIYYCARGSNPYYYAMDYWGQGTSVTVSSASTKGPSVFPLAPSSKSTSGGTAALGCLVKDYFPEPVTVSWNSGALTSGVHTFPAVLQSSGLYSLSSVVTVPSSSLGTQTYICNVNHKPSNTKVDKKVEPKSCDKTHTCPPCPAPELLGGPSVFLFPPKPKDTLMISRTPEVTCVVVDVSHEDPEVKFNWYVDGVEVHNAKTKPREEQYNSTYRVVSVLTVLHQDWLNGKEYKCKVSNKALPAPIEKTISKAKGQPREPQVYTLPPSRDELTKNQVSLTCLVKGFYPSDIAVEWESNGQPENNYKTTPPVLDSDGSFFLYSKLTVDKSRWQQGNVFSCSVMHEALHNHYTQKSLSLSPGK
Sequence of MBI_CD19_1; (SAR3419) (light, as listed by the source, chain 2 of 2): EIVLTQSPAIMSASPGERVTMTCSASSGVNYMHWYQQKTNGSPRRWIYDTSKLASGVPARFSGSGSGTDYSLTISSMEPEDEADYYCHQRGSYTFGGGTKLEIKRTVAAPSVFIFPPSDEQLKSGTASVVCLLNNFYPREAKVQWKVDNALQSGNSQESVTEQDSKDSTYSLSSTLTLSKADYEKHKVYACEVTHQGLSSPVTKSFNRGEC
T3 sequence (heavy, as listed by the source, chain 1 of 2): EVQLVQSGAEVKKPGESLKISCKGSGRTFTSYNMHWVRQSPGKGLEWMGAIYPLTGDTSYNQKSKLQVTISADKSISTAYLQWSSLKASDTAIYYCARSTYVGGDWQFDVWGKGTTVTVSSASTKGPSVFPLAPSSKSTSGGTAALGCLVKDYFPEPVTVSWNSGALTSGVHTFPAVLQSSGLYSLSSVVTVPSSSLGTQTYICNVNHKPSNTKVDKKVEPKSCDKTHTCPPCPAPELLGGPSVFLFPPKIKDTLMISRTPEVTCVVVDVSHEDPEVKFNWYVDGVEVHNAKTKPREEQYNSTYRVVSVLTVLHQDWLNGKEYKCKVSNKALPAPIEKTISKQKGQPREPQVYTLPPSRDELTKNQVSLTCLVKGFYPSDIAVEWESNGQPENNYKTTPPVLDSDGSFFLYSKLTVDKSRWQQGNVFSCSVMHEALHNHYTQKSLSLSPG
T3 sequence (light, as listed by the source, chain 2 of 2): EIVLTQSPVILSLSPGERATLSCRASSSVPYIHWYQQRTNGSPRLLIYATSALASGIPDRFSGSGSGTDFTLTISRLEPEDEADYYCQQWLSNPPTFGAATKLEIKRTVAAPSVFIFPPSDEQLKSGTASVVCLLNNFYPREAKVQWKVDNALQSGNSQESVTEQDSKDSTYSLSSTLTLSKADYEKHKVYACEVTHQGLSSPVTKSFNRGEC
Sequence of MBI_CD19_2; (MOR208) (heavy, as listed by the source, chain 1 of 2): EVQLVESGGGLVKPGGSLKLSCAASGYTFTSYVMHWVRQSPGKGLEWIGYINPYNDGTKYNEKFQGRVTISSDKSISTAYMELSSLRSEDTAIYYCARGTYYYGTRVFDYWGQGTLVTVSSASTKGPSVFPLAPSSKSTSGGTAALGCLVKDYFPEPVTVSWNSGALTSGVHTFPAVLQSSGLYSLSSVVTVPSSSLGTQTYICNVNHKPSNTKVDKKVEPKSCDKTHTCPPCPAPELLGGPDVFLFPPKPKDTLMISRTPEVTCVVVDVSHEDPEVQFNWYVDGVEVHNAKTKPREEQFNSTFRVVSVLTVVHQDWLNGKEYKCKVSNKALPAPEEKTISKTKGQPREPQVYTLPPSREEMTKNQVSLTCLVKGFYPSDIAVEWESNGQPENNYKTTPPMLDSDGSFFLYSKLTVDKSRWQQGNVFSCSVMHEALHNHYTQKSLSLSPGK
Sequence of MBI_CD19_2; (MOR208) (light, as listed by the source, chain 2 of 2): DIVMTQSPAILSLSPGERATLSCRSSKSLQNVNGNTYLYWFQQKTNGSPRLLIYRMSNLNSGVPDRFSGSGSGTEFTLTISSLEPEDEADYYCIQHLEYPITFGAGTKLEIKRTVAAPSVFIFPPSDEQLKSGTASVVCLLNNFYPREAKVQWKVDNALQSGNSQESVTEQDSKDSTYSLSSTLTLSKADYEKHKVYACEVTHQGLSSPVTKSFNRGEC
T4 sequence (heavy, as listed by the source, chain 1 of 2): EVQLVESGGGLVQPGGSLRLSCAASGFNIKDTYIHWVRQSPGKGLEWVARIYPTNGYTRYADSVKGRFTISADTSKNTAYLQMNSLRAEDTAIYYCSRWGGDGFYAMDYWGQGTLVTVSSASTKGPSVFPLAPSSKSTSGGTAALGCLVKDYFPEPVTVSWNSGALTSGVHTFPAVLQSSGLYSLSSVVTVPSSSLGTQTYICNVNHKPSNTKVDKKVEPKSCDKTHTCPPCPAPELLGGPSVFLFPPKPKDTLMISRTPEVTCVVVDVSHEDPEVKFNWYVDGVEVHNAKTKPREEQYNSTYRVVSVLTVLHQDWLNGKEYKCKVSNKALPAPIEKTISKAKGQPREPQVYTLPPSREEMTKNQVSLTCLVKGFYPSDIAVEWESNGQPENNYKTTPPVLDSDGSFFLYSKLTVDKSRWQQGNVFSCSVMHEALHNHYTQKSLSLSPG
T4 sequence (light, as listed by the source, chain 2 of 2): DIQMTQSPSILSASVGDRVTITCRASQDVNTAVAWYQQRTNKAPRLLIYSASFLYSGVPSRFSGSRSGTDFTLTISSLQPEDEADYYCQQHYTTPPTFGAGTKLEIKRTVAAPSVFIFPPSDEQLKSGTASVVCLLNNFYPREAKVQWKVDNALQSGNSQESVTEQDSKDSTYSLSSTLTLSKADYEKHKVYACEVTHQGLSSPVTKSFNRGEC

Binder | Kd [1] [nM] | binding result (MBI_CD19_1; (SAR3419)) | binding result [2] | binding result [3] | Kd (MBI_CD19_2; (MOR208)) [nM] | Kd [4] [nM] | Kd [5] [nM] | Kd [6] [nM] | Kd [7] [nM] | Kd [8] [nM] | Kd [9] [nM] | Kd [10] [nM] | Kd [11] [nM] | Kd [12] [nM] | Kd [13] [nM]
Peptide 19: Ac-…XRCGGGK with Duostatin; -Glu-vc-PAB-Duostatin-; X = (S)-2-amino-5-(3-methyl-3H-diazirin-3-yl) pentanoic acid (N-terminal acetyl; X10 = (S)-2-amino-5-(3-methyl-3H-diazirin-3-yl)pentanoic acid; Glu-vc-PAB-Duostatin conjugated, also called Peptide 19 (with Duostatin); Peptide 19 (with 1 Duostatin per peptide, DAR 2)) peptide: not shown | 42.8 | no binding | no binding | no binding | 33.8 | 33.8 | 120 | 149 | – | – | – | – | – | – | –
Peptide 19: Ac-…XRCGGGK with Duostatin; -Glu-vc-PAB-Duostatin-; X=(S)-2-amino-5-(3-methyl-3H-diazirin-3-yl) pentanoic acid (N-terminal acetyl; X at position 10 = (S)-2-amino-5-(3-methyl-3H-diazirin-3-yl)pentanoic acid; -Glu-vc-PAB-Duostatin conjugated, 5-carbon chain at position 10) peptide: not shown | – | – | – | – | – | – | – | – | 3000 | 1170 | 5680 | < 0.001 | 55.5 | < 0.001 | –
Peptide 20: Ac-…XRCGGGK with Duostatin; -Glu-vc-PAB-Duostatin-; X=(S)-2-amino-6-(3-methyl-3H-diazirin-3-yl) hexanoic acid (N-terminal acetyl; X at position 10 = (S)-2-amino-6-(3-methyl-3H-diazirin-3-yl)hexanoic acid; -Glu-vc-PAB-Duostatin conjugated) peptide: not shown | – | – | – | – | – | – | – | – | 3340 | 6550 | 1210 | – | 246 | – | 19800

Reference: patent publication US20190111149A1 (MEDITOPE BIOSCIENCES, published 2019)
